These are literature values, as cited in US20020168685A1, “Covalent chemical inducers of protein dimerization and their uses in high throughput binding screens” (priority 2001, published 2002).

For the data set the following is noted: substrate nitrocefin.

B1: E. cloacae P99 wt: wild-type E. cloacae P99 cephase (protein, UniProt P05364 21-381, looked up)
Beta-lactamase: TPVSEKQLAEVVANTITPLMKAQSVPGMAVAVIYQGKPHYYTFGKADIAANKPVTPQTLFELGSISKTFTGVLGGDAIARGEISLDDAVTRYWPQLTGKQWQGIRMLDLATYTAGGLPLQVPDEVTDNASLLRFYQNWQPQWKPGTTRLYANASIGLFGALAVKPSGMPYEQAMTTRVLKPLKLDHTWINVPKAEEAHYAWGYRDGKAVRVSPGMLDAQAYGVKTNVQDMANWVMANMAPENVADASLKQGIALAQSRYWRIGSMYQGLGWEMLNWPVEANTVVEGSDSKVALAPLPVAEVNPPAPPVKASWVHKTGSTGGFGSYVAFIPEKQIGIVMLANTSYPNPARVEAAYHILEALQ
For orientation: Km means the concentration of substrate that gives half-maximal velocity. The term kcat denotes the maximal rate divided by the concentration of active sites. Take B1: the “% WT (percentage of wild-type kcat/Km as calculated in that experiment)” value is 100%, the Km was 25 ± 1 µM and the turnover number (kcat) is 780 ± 30 s⁻¹.
